{
  "source": "paper PMC9464187",
  "about": "(2022)",
  "molecules": {"B1": {"name": "JDIa41b1 TCR (TCR)", "alpha TRAV19*01 CDR3": "AMSVPSGDGSYQFT", "beta TRBV6-2*01 CDR3": "ASKVGPGQHNSPLH"}},
  "key": {"[1]": {"target": "HLA-A*11:01 presenting the KRAS^G12D decamer peptide …", "assay": "SPR"}, "[2]": {"target": "HLA-A*11:01 presenting the KRAS G12D decamer peptide …", "assay": "SPR; biotinylated pHLA (400-500 RU) immobilised on a streptavidin-coated CM5 chip, Biacore T200; multi cycle steady state analysis, ten 2-fold dilutions of TCR starting at 50 µM; one site fit"}, "[3]": {"target": "HLA-A*11:01 presenting the KRAS^G12D decamer peptide … (human | not stated)", "assay": "SPR; biotinylated pHLA (400-500 RU) immobilised on a streptavidin-coated CM5 sensor chip, Biacore T200; multi cycle steady state analysis, 10-point titration of JDI TCR from 50 µM to 0.1 µM; one site total least squares fit"}, "[4]": {"target": "T1, KRAS WT peptide on HLA-A*11:01 (human)", "T1 peptide": "VVVGAGGVGK", "assay": "SPR; >4000-fold weaker than to KRAS G12D; soluble, with an engineered disulfide between the constant domains"}, "[5]": {"target": "T2, KRAS G12D peptide on HLA-A*11:01 (human)", "T2 peptide": "VVVGADGVGK", "assay": "SPR single cycle kinetics; soluble, with an engineered disulfide between the constant domains"}},
  "data": [
    {"molecule": "JDI TCR (parent TCR) JDIa96b35", "values": [
      {"measurement": "other: t1/2", "setting": "[1]", "value": "> 20", "unit": "h"}
    ]},
    {"molecule": "JDI TCR (parent TCR)", "values": [
      {"measurement": "Kd", "setting": "[2]", "value": 62.8, "unit": "µM"},
      {"measurement": "Kd", "setting": "[3]", "value": 63, "unit": "µM"}
    ]},
    {"molecule": "JDI TCR (parent TCR) JDIa9bwt", "values": [
      {"measurement": "other: t1/2", "setting": "[1]", "value": 0.3, "unit": "h"}
    ]},
    {"molecule": "B1", "values": [
      {"measurement": "Kd", "setting": "[4]", "value": 3, "unit": "µM"},
      {"measurement": "t1/2", "setting": "[5]", "value": 1.2, "unit": "h"}
    ]}
  ]
}
